This is an account of results in FireProtDB (doi:10.1110/ps.0237703).

Usually Tm stands for the temperature at which the thermal transition is half complete.

For this data set the following is noted: pH 8, Thermal, CD, Bis-Tris propane ammonium acetate 0.05 M 0.05 M, reversible: No, whole UniProt chain shown.

B1: wild type, O00095 (protein)
chain: MKFLQVLPALIPAALAQTSCDQWATFTGNGYTVSNNLWGASAGSGFGCVTAVSLSGGASWHADWQWSGGQNNVKSYQNSQIAIPQKRTVNSISSMPTTASWSYSGSNIRANVAYDLFTAANPNHVTYSGDYELMIWLGKYGDIGPIGSSQGTVNVGGQSWTLYYGYNGAMQVYSFVAQTNTTNYSGDVKNFFNYLRDNKGYNAAGQYVLSYQFGTEPFTGSGTLNVASWTASIN
As to B1, under “Hypocrea jecorina”, the Tm was determined as 54.4 °C.

B2: wild type, Q8NJY6 (protein)
chain: MKFLQVLPAILPAALAQTSCDQYATFSGNGYIVSNNLWGASAGSGFGCVTSVSLNGAASWHADWQWSGGQNNVKSYQNVQINIPQKRTVNSIGSMPTTASWSYSGSDIRANVAYDLFTAANPNHVTYSGDYELMIWLGKYGDIGPIGSSQGTVNVGGQTWTLYYGYNGAMQVYSFVAQSNTTSYSGDVKNFFNYLRDNKGYNAGGQYVLSYQFGTEPFTGSGTLNVASWTASIN
As to B2, the midpoint of thermal melting (Tm) (Trichoderma citrinoviride) was 49.2 °C.

B3: wild type, Q8NJZ1 (protein)
chain: MKANIVILSLFAPLAAVAQTLCGQYSSNTQGGYIFNNNMWGMGSGSGSQCTYVDKVWAEGVAWHTDWSWSGGDNNVKSYPYSGRELGTKRIVSSIKSISSGADWDYTGSNLRANAAYDIFTSANPNHATSSGDYEVMIWLGRYGGVYPIGNSIGTVRAAGRDWALHIGYNGAMKVFSFVAANPVTRFDGEIMDFFYLLRDMQGYPMTSQYLLTLQFGTEPFTGSGAKFNCWYFGATLSYW
For B3, the Tm (Bionectria ochroleuca) came out at 45.9 °C.
